Experimental data reported in US20190100598A1 (CELLDEX THERAPEUTICS, published 2019).

Key:
[1] = biological target: T1, recombinant D5 domain polypeptide of human KIT (N410 to H515, with 5xHis tag) (human, UniProt P10721 26-519); test: solid phase ELISA, D5 antigen coated on the plate
T1 construct: The end residue 144 was computed (33 + 106 + 5); also called D5 region; D5 domain of human KIT

[2] = biological target: T2, recombinant KIT D4/D5 polypeptide (D4/D5 region of human KIT, V308 to H515, with 5xHis tag) (human, UniProt P10721 26-519); test: competition solid phase ELISA on KIT D4/D5 antigen; reference 37M titrated with competitor antibody 37C at 10 nM
T2 construct: The end residue 246 was computed from the stated composition (33 + 208 + 5); This is the glycosylated (untreated) form; also called KIT D4/D5 antigen; KIT immunogen

[3] = biological target: T2, recombinant KIT D4/D5 polypeptide …; test: competition solid phase ELISA on KIT D4/D5 antigen; reference 37M titrated alone, no competitor
[4] = biological target: full-length, wild-type human KIT (human, UniProt P10721 26-976); test: cell-based or functional assay
[5] = biological target: T3, recombinant D4 domain polypeptide of human KIT (V308 to K412, with 6xHis tag) (human, UniProt P10721 26-412); test: solid phase ELISA, antigen coated on plate; D4 region alone
T3 construct: The end residue 144 was computed (33 + 105 + 6); also called D4 region; D4 domain of human KIT
T3 sequence (P10721 other isoform, or with tags, fused parts or gaps): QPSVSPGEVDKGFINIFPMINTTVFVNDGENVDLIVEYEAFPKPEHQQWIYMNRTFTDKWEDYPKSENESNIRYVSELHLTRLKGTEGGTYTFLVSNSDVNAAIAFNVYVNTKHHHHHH

Sequence of full-length, wild-type human KIT (P10721 other isoform, or with tags, fused parts or gaps limits assumed): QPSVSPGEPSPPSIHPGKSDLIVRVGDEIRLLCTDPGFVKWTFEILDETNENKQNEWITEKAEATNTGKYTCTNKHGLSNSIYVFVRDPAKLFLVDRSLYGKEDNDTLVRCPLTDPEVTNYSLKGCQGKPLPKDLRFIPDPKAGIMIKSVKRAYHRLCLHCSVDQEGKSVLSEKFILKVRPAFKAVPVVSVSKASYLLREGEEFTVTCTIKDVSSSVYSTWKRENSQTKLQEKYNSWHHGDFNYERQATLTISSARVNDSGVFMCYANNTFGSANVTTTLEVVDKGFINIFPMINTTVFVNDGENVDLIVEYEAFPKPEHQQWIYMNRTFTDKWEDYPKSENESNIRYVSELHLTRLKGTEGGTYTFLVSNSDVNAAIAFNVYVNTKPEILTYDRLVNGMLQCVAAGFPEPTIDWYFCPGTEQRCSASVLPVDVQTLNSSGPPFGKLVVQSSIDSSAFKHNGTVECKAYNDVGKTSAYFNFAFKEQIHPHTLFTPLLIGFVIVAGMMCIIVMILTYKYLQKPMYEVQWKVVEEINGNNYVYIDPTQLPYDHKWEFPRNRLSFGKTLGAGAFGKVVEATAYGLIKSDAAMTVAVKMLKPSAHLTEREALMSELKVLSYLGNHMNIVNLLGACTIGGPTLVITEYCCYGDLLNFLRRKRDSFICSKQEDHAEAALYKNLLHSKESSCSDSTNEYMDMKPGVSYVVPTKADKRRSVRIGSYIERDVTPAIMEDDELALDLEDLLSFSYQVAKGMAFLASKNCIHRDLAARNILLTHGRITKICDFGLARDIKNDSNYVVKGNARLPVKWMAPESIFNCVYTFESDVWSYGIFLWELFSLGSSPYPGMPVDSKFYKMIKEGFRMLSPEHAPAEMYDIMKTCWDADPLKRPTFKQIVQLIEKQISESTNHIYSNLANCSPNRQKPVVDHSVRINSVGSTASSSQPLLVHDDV
T2 sequence (P10721 other isoform, or with tags, fused parts or gaps): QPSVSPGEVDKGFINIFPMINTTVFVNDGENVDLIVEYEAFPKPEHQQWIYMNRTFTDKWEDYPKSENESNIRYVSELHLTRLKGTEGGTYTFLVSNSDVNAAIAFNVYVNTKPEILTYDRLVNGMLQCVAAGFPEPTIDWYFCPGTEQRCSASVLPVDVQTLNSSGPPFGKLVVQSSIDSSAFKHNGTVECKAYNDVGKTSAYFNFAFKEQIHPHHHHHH
T1 sequence (P10721 other isoform, or with tags, fused parts or gaps): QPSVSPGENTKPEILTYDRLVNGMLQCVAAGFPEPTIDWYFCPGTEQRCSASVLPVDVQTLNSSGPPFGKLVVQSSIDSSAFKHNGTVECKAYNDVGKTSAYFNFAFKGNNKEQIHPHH

B1: antibody 37M (antibody, V domains shown)
VH: QVQLKQSGAELVRPGASVKLSCKASGYTFTDYYINWVKQRPGQGLEWIARIYPGSGNTYYNEKFKGKATLTAEKSSSTAYMQLSSLTSEDSAVYFCARGVYYFDYWGQGTTLTVSS
VL: DIVMTQSQKFMSTSVGDRVSVTCKASQNVRTNVAWYQQKPGQSPKALIYSASYRYSGVPDRFTGSGSGTDFTLTISNVQSEDLADYFCQQYNSYPRTFGGGTKLEIKR
notes: also called anti-KIT antibody 37M; 37M antibody
EC50 [1]: > 3000 nM | EC50 [2]: 2.8 nM | EC50 [3]: 0.115 nM | 50% inhibition concentration (IC50) of SCF-induced KIT tyrosine phosphorylation, cell-based phospho-KIT assay, CHO/KIT-WT cells [4]: ~0.109 nM | IC50 of SCF-induced AKT phosphorylation (phospho-AKT assay), sorted CHO/KIT-WT cells [4]: ~0.138 nM | IC50 of SCF-induced KIT tyrosine phosphorylation, separate experiment (FIG. 11A), CHO/KIT-WT cells [4]: ~0.096 nM | EC50 [5]: ~0.572 nM
